This test addresses T1, (Ig32)2-(R3^IVVI)-(Ig32)2 polyprotein, talin R3 domain with the IVVI mutation.
T1 chain: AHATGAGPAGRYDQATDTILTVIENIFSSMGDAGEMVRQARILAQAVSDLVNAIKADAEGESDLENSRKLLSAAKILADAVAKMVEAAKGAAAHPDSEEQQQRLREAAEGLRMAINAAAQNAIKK
As to the kind of experiment: magnetic tweezers. The note with it: chain shown with the change; for other: average unbinding time at 40 pN: parent: est. 9 s, read off a plot.

Here are results for two molecules from paper PMC10354202.

B1: full-length human vinculin, wild type, P18206-2 K944A; R945A; D1013A; E1015A; E986A (protein)
chain: MPVFHTRTIESILEPVAQQISHLVIMHEEGEVDGKAIPDLTAPVAAVQAAVSNLVRVGKETVQTTEDQILKRDMPPAFIKVENACTKLVQAAQMLQSDPYSVPARDYLIDGSRGILSGTSDLLLTFDEAEVRKIIRVCKGILEYLTVAEVVETMEDLVTYTKNLGPGMTKMAKMIDERQQELTHQEHRVMLVNSMNTVKELLPVLISAMKIFVTTKNSKNQGIEEALKNRNFTVEKMSAEINEIIRVLQLTSWDEDAWASKDTEAMKRALASIDSKLNQAKGWLRDPSASPGDAGEQAIRQILDEAGKVGELCAGKERREILGTCKMLGQMTDQVADLRARGQGSSPVAMQKAQQVSQGLDVLTAKVENAARKLEAMTNSKQSIAKKIDAAQNWLADPNGGPEGEEQIRGALAEARKIAELCDDPKERDDILRSLGEISALTSKLADLRRQGKGDSPEARALAKQVATALQNLQTKTNRAVANSRPAKAAVHLEGKIEQAQRWIDNPTVDDRGVGQAAIRGLVAEGHRLANVMMGPYRQDLLAKCDRVDQLTAQLADLAARGEGESPQARALASQLQDSLKDLKARMQEAMTQEVSDVFSDTTTPIKLLAVAATAPPDAPNREEVFDERAANFENHSGKLGATAEKAAAVGTANKSTVEGIQASVKTARELTPQVVSAARILLRNPGNQAAYEHFETMKNQWIDNVEKMTGLVDEAIDTKSLLDASEEAIKKDLDKCKVAMANIQPQMLVAGATSIARRANRILLVAKREVENSEDPKFREAVKAASDELSKTISPMVMDAKAVAGNISDPGLQKSFLDSGYRILGAVAKVREAFQPQEPDFPPPPPDLEQLRLTDELAPPKPPLPEGEVPPPRPPPPEEKDEEFPEQKAGEVINQPMMMAARQLHDEARKWSSKGNDIIAAAKRMALLMAEMSRLVRGGSGTAAALIQCAKDIAKASDEVTRLAKEVAKQCTDKRIRTNLLQVCARIPTISTQLKILSTVKATMLGRTNISAEASEQATEMLVHNAQNLMQSVKETVREAEAASIKIRTDAGFTLRWVRKTPWYQ
Regarding B1, the other: unbinding time (tUb) at 40 pN, peak of square-root histogram was found to be 3.4 s and the other: average unbinding time at 40 pN came out at 18 s.

B2: full-length human vinculin, wild type, P18206-2 K944A; R945A; D1013A; E1015A (protein)
chain: MPVFHTRTIESILEPVAQQISHLVIMHEEGEVDGKAIPDLTAPVAAVQAAVSNLVRVGKETVQTTEDQILKRDMPPAFIKVENACTKLVQAAQMLQSDPYSVPARDYLIDGSRGILSGTSDLLLTFDEAEVRKIIRVCKGILEYLTVAEVVETMEDLVTYTKNLGPGMTKMAKMIDERQQELTHQEHRVMLVNSMNTVKELLPVLISAMKIFVTTKNSKNQGIEEALKNRNFTVEKMSAEINEIIRVLQLTSWDEDAWASKDTEAMKRALASIDSKLNQAKGWLRDPSASPGDAGEQAIRQILDEAGKVGELCAGKERREILGTCKMLGQMTDQVADLRARGQGSSPVAMQKAQQVSQGLDVLTAKVENAARKLEAMTNSKQSIAKKIDAAQNWLADPNGGPEGEEQIRGALAEARKIAELCDDPKERDDILRSLGEISALTSKLADLRRQGKGDSPEARALAKQVATALQNLQTKTNRAVANSRPAKAAVHLEGKIEQAQRWIDNPTVDDRGVGQAAIRGLVAEGHRLANVMMGPYRQDLLAKCDRVDQLTAQLADLAARGEGESPQARALASQLQDSLKDLKARMQEAMTQEVSDVFSDTTTPIKLLAVAATAPPDAPNREEVFDERAANFENHSGKLGATAEKAAAVGTANKSTVEGIQASVKTARELTPQVVSAARILLRNPGNQAAYEHFETMKNQWIDNVEKMTGLVDEAIDTKSLLDASEEAIKKDLDKCKVAMANIQPQMLVAGATSIARRANRILLVAKREVENSEDPKFREAVKAASDELSKTISPMVMDAKAVAGNISDPGLQKSFLDSGYRILGAVAKVREAFQPQEPDFPPPPPDLEQLRLTDELAPPKPPLPEGEVPPPRPPPPEEKDEEFPEQKAGEVINQPMMMAARQLHDEARKWSSKGNDIIAAAKRMALLMAEMSRLVRGGSGTAAALIQCAKDIAKASDEVTRLAKEVAKQCTDKRIRTNLLQVCERIPTISTQLKILSTVKATMLGRTNISAEASEQATEMLVHNAQNLMQSVKETVREAEAASIKIRTDAGFTLRWVRKTPWYQ
For B2, the other: unbinding time (tUb) at 40 pN, peak of square-root histogram worked out at 4 s and the other: average unbinding time at 40 pN worked out at 27 s.
